Data: publication PMC3432581 (Methods in molecular biology (Clifton, N.J.), 2011)

Target: the molecule itself
Assay: FRET or BRET

B1: CCAAT/Enhancer Binding Protein α (C/EBPα) (natural protein, UniProt P05554 244-358, looked up)
chain: GPGGSLKGLAGPHPDLRTGGGGGGGAGAGKAKKSVDKNSNEYRVRRERNNIAVRKSRDKAKQRNVETQQKVLELTSDNDRLRKRVEQLSRELDTLRGIFRQLPESSLVKAMGNCA
BRET ratio (Y ÷ B): 0.39
